The values below come from publication PMC3870021.

The target of one assay is EPCR (Homo sapiens) (UniProt Q9UNN8). The note with it: cited from earlier work.
Assay [1] has as its target recombinant human EPCR (extracellular domain Met1-Thr209, C-terminal poly-histidine tag) (human) (UniProt Q9UNN8). The experiment in a line: SPR.

recombinant human EPCR (extracellular domain Met1-Thr209, C-terminal poly-histidine tag) (human), sequence (Q9UNN8 18-209): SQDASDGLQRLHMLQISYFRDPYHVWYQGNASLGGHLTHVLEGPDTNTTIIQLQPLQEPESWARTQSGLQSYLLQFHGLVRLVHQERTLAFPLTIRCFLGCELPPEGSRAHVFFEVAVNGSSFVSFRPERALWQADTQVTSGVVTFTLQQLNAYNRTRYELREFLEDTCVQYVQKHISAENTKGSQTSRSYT
EPCR (Homo sapiens), sequence (Q9UNN8 18-210): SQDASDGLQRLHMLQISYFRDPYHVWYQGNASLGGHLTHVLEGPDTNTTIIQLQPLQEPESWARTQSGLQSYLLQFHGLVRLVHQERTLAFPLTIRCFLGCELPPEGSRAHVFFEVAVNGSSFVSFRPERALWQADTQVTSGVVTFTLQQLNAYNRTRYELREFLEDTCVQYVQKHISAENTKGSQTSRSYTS

The Kd is the equilibrium constant for the complex coming apart. Turning to “Activated protein C (from UniProt P04070)”, the Kd with EPCR (Homo sapiens) is 32 nM.
For “activated protein C (commercial human purified APC) (from UniProt P04070 43-197) (enzyme)”, the Kd in assay [1] worked out at 1000 nM.
For “recombinant full-length DC8-containing PfEMP1 IT4VAR20 (natural protein)”, the dissociation constant (Kd) in assay [1] came out at 10 nM.
